Assay results taken from patent US20150150156, “METHODS AND COMPOSITIONS FOR REDUCING GENE EXPRESSION IN PLANTS” (The Regents of the University of California, published 2015).

T1: SUVR5 zinc finger domain (aa 720-866) (Arabidopsis thaliana, UniProt O64827 SEQ:1-147)
T1 sequence: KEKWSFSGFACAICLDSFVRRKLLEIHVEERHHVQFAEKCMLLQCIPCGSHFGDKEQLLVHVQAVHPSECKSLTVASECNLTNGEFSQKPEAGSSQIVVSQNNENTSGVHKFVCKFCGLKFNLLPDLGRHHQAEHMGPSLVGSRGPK

B1: specific probe (dsDNA)
DNA 1: GTAGAATACTAGTTGATAAC
DNA 2: GTTATCAACTAGTATTCTAC
B2: unspecific probe (dsDNA)
DNA 1: ACCAAGCAACACACCCCGT
DNA 2: ACGGGGTGTGTTGCTTGGT

Assays:
[1] = target: T1, SUVR5 zinc finger domain (aa 720-866); assay: EMSA; 100, 250, 500 ng protein; 12% glycerol, 20 mM Tris-HCl pH 7.5, 50 mM KCl, 1 mM MgCl2, 1 mM DTT; conditions: tags: GST fusion (pDEST15)
[2] = target: T1, SUVR5 zinc finger domain (aa 720-866); assay: EMSA; specificity control; specificity stated as confirmed by EMSA, gel only in figure; conditions: tags: GST fusion (pDEST15)

| Binder | binding result [1] | binding result [2] |
| --- | --- | --- |
| B1 | binds |  |
| B2 |  | no binding |
